Experimental data published in patent US20120077731A1 (Ablynx, published 2012).

B1: PMP7C4 (VHH)
VHH: EVQLVESGGGLVQPGGSLRLSCAASGTTFRINVMAWYRQAPGKGRELVAGIITNGSTSYADSVKGRFTISRDNAKNTLYLQMNSLRPEDTAVYYCAFVTTNSDYDLGRDYWGQGTLVTVSS
notes: not shown: c-myc and (His)6 tags
B2: PMP7F4 (VHH)
VHH: EVQLVESGGGLVQPGGSLRLSCAASGTTFKVNVMAWYRQAPGKGRELVAGIINGGSTTYADSVKGRFTISRDNAKNTLYLQMNSLRPEDTAVYYCAFVTTNSDYDLGRDYWGQGTLVTVSS
B3: PMP7D6 (VHH)
VHH: EVQLVESGGGLVQPGGSLRLSCAASGSIFRVNVMAWYRQAPGKGRELVAAVINGGTTTYADSVKGRFTISRDNAKNTLYLQMNSLRPEDTAVYYCAFVTTNSDYDLGRDYWGQGTLVTVSS
notes: as for B1
B4: PMP7G7 (VHH)
VHH: EVQLVESGGGLVQPGGSLRLSCAASGTTFKINIMAWYRQAPGKGRELVAGVITGGNTTYADSVKGRFTISRDNAKNTLYLQMNSLRPEDTAVYYCAFVTTNSDYDLGRDYWGQGTLVTVSS
notes: expressed with c-myc and (His)6 tags
B5: PMP7G8 (VHH)
VHH: EVQLVESGGGLVQPGGSLRLSCAASGSTFRINVMAWYRQAPGKGRELVAGVINDGSTTYADSVKGRFTISRDNAKNTLYLQMNSLRPEDTAVYYCAFVTTNSDYDLGRDYWGQGTLVTVSS
notes: as for B4
B6: IL6R71 (VHH)
VHH: EVQLVESGGGLVQPGGSLRLSCAASGFTFDDYDIGWFRQAPGKGREGVSGISSSDGNTYYADSVKGRFTISSDNAKNTVYLQMNSLRPEDTAVYYCAAEPPDSSWYLDGSPEFFKYWGQGTLVTVSS
B7: IL6R72 (VHH)
VHH: EVQLVESGGGLVQPGGSLRLSCAASGFTFSDYDIGWFRQAPGKGREGVSGISSSDGNTYYADSVKGRFTISSDNAKNTVYLQMNSLRPEDTAVYYCAAEPPDSSWYLDGSPEFFKYWGQGTLVTVSS
B8: IL6R75 (VHH)
VHH: EVQLVESGGGLVQPGGSLRLSCAASGFTFSDYDIGWFRQAPGKGREGVSGISSSDGNTYYADSVKGRFTISRDNAKNTLYLQMNSLRPEDTAVYYCAAEPPDSSWYLDGSPEFFKYWGQGTLVTVSS
notes: also called ILR7.5; not shown: tag (IL6R201 is called the tagless version of IL6R75)
B9: IL6R73 (VHH)
VHH: EVQLVESGGGLVQPGGSLRLSCAASGFTFDDYDIGWFRQAPGKGREGVSGISSSDGNTYYADSVKGRFTISRDNAKNTVYLQMNSLRPEDTAVYYCAAEPPDSSWYLDGSPEFFKYWGQGTLVTVSS
B10: IL6R74 (VHH)
VHH: EVQLVESGGGLVQPGGSLRLSCAASGFTFDDYDIGWFRQAPGKGREGVSGISSSDGNTYYADSVKGRFTISSDNAKNTLYLQMNSLRPEDTAVYYCAAEPPDSSWYLDGSPEFFKYWGQGTLVTVSS
B11: IL6R81 (VHH)
VHH: EVQLVESGGGLVQPGGSLRLSCAASGFTFDDYGMSWVRQAPGRATEWVSAISWNGNNTYYTESMKGRFTISRDNAKNTVYLQMNSLRPEDTAVYYCVKGSTAIVGVPPTYPDEYDYWGQGTLVTVSS
B12: IL6R82 (VHH)
VHH: EVQLVESGGGLVQPGGSLRLSCAASGFTFDDYGMSWVRQAPGKGLEWVSAISWNGNNTYYTESMKGRFTISRDNAKNTVYLQMNSLRPEDTAVYYCVKGSTAIVGVPPTYPDEYDYWGQGTLVTVSS
B13: IL6R84 (VHH)
VHH: EVQLVESGGGLVQPGGSLRLSCAASGFTFDDYGMSWVRQAPGKGLEWVSAISWNGNNTYYTESMKGRFTISRDNAKNTLYLQMNSLRPEDTAVYYCVKGSTAIVGVPPTYPDEYDYWGQGTLVTVSS
B14: IL6R83 (VHH)
VHH: EVQLVESGGGLVQPGGSLRLSCAASGFTFDDYGMSWVRQAPGRATEWVSAISWNGNNTYYTESMKGRFTISRDNAKNTLYLQMNSLRPEDTAVYYCVKGSTAIVGVPPTYPDEYDYWGQGTLVTVSS
B15: IL6R88 (VHH)
VHH: EVQLVESGGGLVQPGGSLRLSCAASGFTFDDYGMSWVRQAPGKGTEWVSAISWNGNNTYYTESMKGRFTISRDNAKNTLYLQMNSLRPEDTAVYYCVKGSTAIVGVPPTYPDEYDYWGQGTLVTVSS
notes: tested as periplasmic extract and purified

Key:
Human soluble IL-6R [1] = biological target: T1, Human soluble IL-6R (human, UniProt P08887 20-358); experiment: SPR (Biacore), binding curves at several concentrations of purified Nanobody on IL-6R
T1 construct: Soluble recombinant form; biotinylated in some assays; also called hIL-6R; human IL-6R
T1 sequence (looked up): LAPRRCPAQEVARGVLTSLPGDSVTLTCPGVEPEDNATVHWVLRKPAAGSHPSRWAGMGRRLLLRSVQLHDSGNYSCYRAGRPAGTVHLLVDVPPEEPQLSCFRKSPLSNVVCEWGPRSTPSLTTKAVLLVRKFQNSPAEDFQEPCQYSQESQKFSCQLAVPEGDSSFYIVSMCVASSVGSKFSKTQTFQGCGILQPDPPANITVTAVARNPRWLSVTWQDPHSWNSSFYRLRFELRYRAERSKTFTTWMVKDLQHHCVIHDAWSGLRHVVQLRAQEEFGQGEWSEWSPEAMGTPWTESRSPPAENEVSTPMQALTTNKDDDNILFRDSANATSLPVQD

Cyno plasma sIL-6R [2] = biological target: T2, Cyno plasma sIL-6R (cynomolgus monkey, UniProt A0A2K5WN54 60-396); experiment: plasma potency assay, cyno plasma ([IL6R]: ~0.4 nM, [IL6]: 2.4 nM printed); sIL-6R captured on BN-12, bound IL-6 detected; blocked ligand IL-6
T2 construct: also called cynomolgus sIL-6R
T2 sequence: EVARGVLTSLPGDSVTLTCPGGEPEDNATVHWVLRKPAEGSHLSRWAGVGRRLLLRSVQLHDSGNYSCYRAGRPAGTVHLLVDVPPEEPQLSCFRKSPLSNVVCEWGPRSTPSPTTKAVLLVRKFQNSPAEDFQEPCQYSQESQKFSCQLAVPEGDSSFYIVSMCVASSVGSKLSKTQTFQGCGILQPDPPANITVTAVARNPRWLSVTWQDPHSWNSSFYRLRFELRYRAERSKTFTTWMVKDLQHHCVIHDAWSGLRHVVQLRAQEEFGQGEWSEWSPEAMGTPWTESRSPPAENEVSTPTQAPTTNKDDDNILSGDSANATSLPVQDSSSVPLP

Human plasma sIL-6R [3] = biological target: T3, Human plasma sIL-6R (human, UniProt P08887 20-355, limits assumed); experiment: plasma potency assay, human plasma ([IL6R]: ~0.4 nM, [IL6]: 2.4 nM printed); sIL-6R captured on BN-12, bound IL-6 detected; blocked ligand IL-6
T3 construct: also called plasma-derived human IL-6R
T3 sequence (looked up): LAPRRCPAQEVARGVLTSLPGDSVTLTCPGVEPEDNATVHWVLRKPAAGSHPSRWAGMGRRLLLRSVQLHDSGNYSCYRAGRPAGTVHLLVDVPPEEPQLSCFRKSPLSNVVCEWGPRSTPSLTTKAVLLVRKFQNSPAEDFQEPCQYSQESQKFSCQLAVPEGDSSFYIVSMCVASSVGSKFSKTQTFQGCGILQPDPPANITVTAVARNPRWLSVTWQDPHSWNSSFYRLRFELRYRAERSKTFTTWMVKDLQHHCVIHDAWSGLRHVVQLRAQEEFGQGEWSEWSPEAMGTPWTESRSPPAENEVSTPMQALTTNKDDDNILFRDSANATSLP

Human plasma sIL-6R [4] = biological target: T3, Human plasma sIL-6R; experiment: plasma potency assay, human plasma, 42 nM IL6; sIL-6R captured on BN-12, bound IL-6 detected; blocked ligand IL-6
Human plasma sIL-6R [5] = biological target: T3, Human plasma sIL-6R; experiment: plasma potency assay, human plasma, 2.4 nM IL6; blocked ligand IL-6
Procedure: (§1) All 5 affinity matured Nanobodies and the sequence optimized Nanobody were also tested in a plasma potency assay. […] TMB was used as substrate.

Cyno plasma sIL-6R [6] = biological target: T2, Cyno plasma sIL-6R; experiment: plasma potency assay, cyno plasma, 2.4 nM IL6; blocked ligand IL-6
Procedure: as §1

Human plasma sIL-6R [7] = biological target: T3, Human plasma sIL-6R; experiment: plasma potency assay, human plasma, 42 nM IL6; blocked ligand IL-6
Procedure: as §1

Human soluble IL-6R [8] = biological target: T1, Human soluble IL-6R; experiment: Biacore, binding to IL-6R
Human soluble IL-6R [9] = biological target: T1, Human soluble IL-6R; experiment: Alphascreen IL-6/IL-6R competition (IL-6R 0.3 nM, bio-IL-6 3 nM); row EC50 of the fit table, axis [competitor], M; blocked ligand IL-6
Human soluble IL-6R [10] = biological target: T1, Human soluble IL-6R; experiment: SPR Biacore 3000, human IL-6R amine-coupled to CM5
Procedure: Remaining reactive groups were inactivated. Nanobody binding was assessed at various concentrations ranging from 0.5 to 50 nM. Each sample was injected for 4 min at a flow rate of 45 μl/min to allow for binding to chip-bound antigen. Next, binding buffer without Nanobody was sent over the chip at the same flow rate to allow for dissociation of bound Nanobody.

Human soluble IL-6R [11] = biological target: T1, Human soluble IL-6R; experiment: Alphascreen IL-6/IL-6R competition with purified Nanobody; row EC50 of the table, axis [inhibitor], M; blocked ligand IL-6
[12] = biological target: T4, Human membrane IL-6R on cells (human, UniProt P08887 20-468); experiment: cell-based or functional assay
T4 sequence (looked up): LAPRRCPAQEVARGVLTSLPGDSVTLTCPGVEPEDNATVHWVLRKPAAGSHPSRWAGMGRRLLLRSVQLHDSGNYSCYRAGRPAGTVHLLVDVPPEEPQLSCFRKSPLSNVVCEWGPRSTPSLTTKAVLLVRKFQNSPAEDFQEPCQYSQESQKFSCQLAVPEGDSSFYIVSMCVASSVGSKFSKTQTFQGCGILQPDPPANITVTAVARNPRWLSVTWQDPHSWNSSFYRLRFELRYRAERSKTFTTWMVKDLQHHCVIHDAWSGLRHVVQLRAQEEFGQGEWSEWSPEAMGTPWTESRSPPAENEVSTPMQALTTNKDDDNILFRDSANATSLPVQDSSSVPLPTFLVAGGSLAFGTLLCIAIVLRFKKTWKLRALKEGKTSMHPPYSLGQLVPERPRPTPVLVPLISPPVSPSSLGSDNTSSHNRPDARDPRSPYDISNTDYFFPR

Human soluble IL-6R [13] = biological target: T1, Human soluble IL-6R; experiment: Alphascreen IL-6/IL-6R competition (IL-6R 0.3 nM, bio-IL-6 3 nM); row EC50 of the fit table, axis [competitor], M; blocked ligand IL-6; remark: listed apart in the source
Human soluble IL-6R [14] = biological target: T1, Human soluble IL-6R; experiment: Biacore off-rate, periplasmic extracts

Binder | Kd (Human soluble IL-6R [1]) | IC50 (Cyno plasma sIL-6R [2]) | IC50 (Human plasma sIL-6R [3]) | IC50 (Human plasma sIL-6R [4]) | Kd (Human soluble IL-6R [8]) | koff (Human soluble IL-6R [8]) | kon (Human soluble IL-6R [8]) | other results
B1 | 0.34 nM | 0.08 nM | 0.21 nM | 0.9 nM |  |  |  | 
B2 | 0.48 nM | 0.09 nM | 0.24 nM | 1.2 nM |  |  |  | 
B3 | 0.42 nM | 0.09 nM | 0.19 nM | 0.8 nM |  |  |  | IC50 (Human plasma sIL-6R [5]): 0.25 nM; IC50 (Cyno plasma sIL-6R [6]): 0.13 nM; IC50 (Human plasma sIL-6R [7]): 0.95 nM
B4 | 0.56 nM | 0.11 nM | 0.22 nM | 1.5 nM |  |  |  | 
B5 | 0.95 nM | 0.14 nM | 0.34 nM | 3.5 nM |  |  |  | 
B6 |  |  |  |  | 0.2 nM | 0.000153 s⁻¹ | 703000 M⁻¹ s⁻¹ | IC50 (Human soluble IL-6R [9]): 0.153 nM
B7 |  |  |  |  | 0.3 nM | 0.00018 s⁻¹ | 543000 M⁻¹ s⁻¹ | IC50 (Human soluble IL-6R [9]): 0.161 nM
B8 |  |  |  |  |  |  |  | Kd (Human soluble IL-6R [10]): 0.1 nM; koff (Human soluble IL-6R [10]): 0.0001 s⁻¹; kon (Human soluble IL-6R [10]): 1e+06 M⁻¹ s⁻¹; IC50 (Human soluble IL-6R [11]): 0.0432 nM; IC50 values (nM), XG-1 assay [12]: 0.04 nM
B9 |  |  |  |  | 0.3 nM | 0.000233 s⁻¹ | 698000 M⁻¹ s⁻¹ | IC50 (Human soluble IL-6R [9]): 0.0916 nM
B10 |  |  |  |  | 0.2 nM | 0.000122 s⁻¹ | 767000 M⁻¹ s⁻¹ | IC50 (Human soluble IL-6R [9]): 0.133 nM
B11 |  |  |  |  | 0.4 nM | 0.000128 s⁻¹ | 320000 M⁻¹ s⁻¹ | IC50 (Human soluble IL-6R [13]): 0.0747 nM
B12 |  |  |  |  | 5.1 nM | 0.00314 s⁻¹ | 619000 M⁻¹ s⁻¹ | IC50 (Human soluble IL-6R [13]): 0.476 nM
B13 |  |  |  |  | 5.4 nM | 0.00409 s⁻¹ | 762000 M⁻¹ s⁻¹ | IC50 (Human soluble IL-6R [13]): 0.465 nM
B14 |  |  |  |  | 0.3 nM | 0.00012 s⁻¹ | 350000 M⁻¹ s⁻¹ | IC50 (Human soluble IL-6R [13]): 0.0779 nM
B15 |  |  |  |  |  |  |  | Kd (Human soluble IL-6R [10]): 0.9 nM; koff (Human soluble IL-6R [10]): 0.000213 s⁻¹; kon (Human soluble IL-6R [10]): 230000 M⁻¹ s⁻¹; IC50 (Human soluble IL-6R [11]): 0.0727 nM; IC50 values (nM), XG-1 assay [12]: 3.3 nM; koff (Human soluble IL-6R [14]): 0.00026 s⁻¹
